Experimental data as given in US20060121047A1, “Use of hmgb polypetides for increasing immune responses” (priority 2002, published 2006).
Marks after values point to notes of the source that are not given here.

Assays:
[1] = test system: D-galactosamine-sensitized Balb/c mice; test: Histology of organs of D-galactosamine-sensitized Balb/c mice; format: in vivo; settings: 1 mg/mouse i.p. plus D-gal, 7 hours
Description: (§1) To further assess the lethality of the HMGB1 B box protein in vivo the HMGB1 B box was again administered to D-galactosamine-sensitized Balb/c mice. Mice (3 per group) received D-gal (20 mg/mouse) plus B box or vector (1 mg/mouse) intraperitoneally for 7 hours and were then sacrificed by decapitation. Blood was collected, and organs (liver, heart, kidney and lung) were harvested and fixed in 10% formaldehyde. Tissue sections were prepared with hematoxylin and eosin staining for histological evaluation (Criterion Inc., Vancouver, Canada). […] In FIG. 4J, hepatocyte dropouts are seen surrounded by accumulated polymorphonuclear leukocytes. The arrows in FIG. 4J point to the sites of polymorphonuclear accumulation (dotted) or apoptotic hepatocytes (solid).

[2] = test system: D-galactosamine-sensitized Balb/c mice; test: Serum cytokine levels in D-galactosamine-sensitized Balb/c mice; format: in vivo; settings: 1 mg/mouse i.p. plus D-gal, 7 hours
Description: as §1

RAW 264.7 cells [3] = test: IL-6 release from RAW 264.7 cells (ELISA); format: cell-based, murine; settings: B box 0-10 μg/ml, 8 hours (FIG. 2C)
Description: (§2) Murine macrophage-like RAW 264.7 cells (American Type Culture Collection, Rockville, Md.) were cultured in RPMI 1640 medium (Life Technologies, Grand Island N.Y.) supplemented with 10% fetal bovine serum (Gemini, Catabasas, Calif.), penicillin and streptomycin (Life Technologies) and were used at 90% confluence in serum-free Opti-MEM I medium (Life Technologies, Grand Island, N.Y.). […] Polymyxin B was not used in experiments of synthetic peptide studies.
(§3) To further examine the effect of HMGB1 B box on cytokine production, varying amounts of HMGB1 B box were evaluated for the effects on TNF, IL-1B, and IL-6 production in murine macrophage-like RAW 264.7 cells. Conditioned media were harvested and measured for TNF, IL-1β and IL-6 levels. TNF levels were measured as described herein, and IL-1β and IL-6 levels were measured using the mouse IL-1β and IL-6 enzyme-linked immunosorbent assay (ELISA) kits (R&D System Inc., Minneapolis, 1) and N>5 for all experiments.

C3H/HeJ mice = test: Lethality and histology in C3H/HeJ mice; format: in vivo
From the text: (§4) Male 6-8 week old Balb/c and C3H/HeJ mice were purchased from Harlen Sprague-Dawley (Indianapolis, Ind.) and were allowed to acclimate for 7 days before use in experiments. All animals were housed in the North Shore University Hospital Animal Facility under standard temperature, and a light and dark cycle.

[4] = test system: D-galactosamine-sensitized Balb/c mice; test: Toxicity (survival) in D-galactosamine-sensitized Balb/c mice; format: in vivo; settings: for Alive/total: survival monitored up to 7 days
From the text: as §4
The D-galactosamine-sensitized model has been described previously (Galanos et al., Proc Natl. Acad. Sci. USA 76: 5939-5943, 1979; and Lehmann et al., J. Exp. Med. 165: 657663, 1997). Mice were injected intraperitoneally with 20 mg D-galactosamine-HCL (Sigma)/mouse (in 200 μl PBS) and 0.1 or 1 mg of either HMGB1 B box or vector protein (in 200 μl PBS).
To investigate whether the HMGB1 B box has cytokine activity in vivo, we administered HMGB1 B box protein to unanesthetized Balb/c mice sensitized with D-galactosamine (D-gal), a model that is widely used to study cytokine toxicity (Galanos et al., supra). Briefly, mice (20-25 gram, male, Harlan Sprague-Dawley, Indianapolis, IN) were intraperitoneally injected with D-gal (20 mg) (Sigma) and B box (0.1 mg/ml/mouse or 1 mg/ml/mouse) or GST tag (vector; 0.1 mg/ml/mouse or 1 mg/ml/mouse), as indicated in Table 1. […]

RAW 264.7 cells [5] = test: IL-1β release from RAW 264.7 cells (ELISA); format: cell-based, murine; settings: B box 0-10 μg/ml, 8 hours (FIG. 2B)
Description: as §2, §3

B1: B box: Recombinant GST-system human HMGB1 mutant containing only the B box, 74 amino acids, SEQ ID NO: 20 (protein, listed as Homo sapiens)
chain: FKDPNAPKRLPSAFFLFCSEYRPKIKGEHPGLSIGDVAKKLGEMWNNTAADDKQPYEKKAAKLKEKYEKDIAAY
modifications: GST system
histology of heart [1]: some ischemic changes and loss of cross striation in myocardial fibers | histology of kidneys and lungs [1]: no abnormality | histology of liver [1]: active hepatitis | serum levels of IL-1β [2]: 15+3 pg/ml | serum levels of IL-6 [2]: 315+93 pg/ml | IL-6 release, dose dependence (RAW 264.7 cells [3]): increased with increased amounts of B box | IL-6 release, dose dependence (RAW 264.7 cells [3]; listed as HMGB1 B box): dose-dependently stimulated release | histology of heart (C3H/HeJ mice; 8 hours after administration): evidence of ischemia with loss of cross striation | histology of liver (C3H/HeJ mice; 8 hours after administration): mild acute inflammatory responses | histology of lung and kidney (C3H/HeJ mice; 8 hours after administration): no abnormal morphologic changes | lethality (C3H/HeJ mice; C3H/HeJ mice (do not respond to endotoxin)): lethal | Alive/total ([4]; 0.1 mg/mouse i.p. with D-gal 20 mg): 6/6 | Alive/total ([4]; 1 mg/mouse i.p. with D-gal 20 mg): 2/8* | lethality ([4]; 0.1 or 1 mg/mouse i.p.): lethal to D-galactosamine-sensitized mice in a dose-dependent manner | time of death ([4]; instances in which death occurred): ≤ 12 h | late deaths among survivors ([4]; survivors followed for 2 weeks): no later deaths from B box toxicity were observed | IL-1β release, dose dependence (RAW 264.7 cells [5]): addition of 1 μg/ml or 10 μg/ml of B box resulted in increased release | IL-1β release, dose dependence (RAW 264.7 cells [5]; listed as HMGB1 B box): dose-dependently stimulated release
